Assay results: paper PMC3020112 (The EMBO Journal, 2010)
“And” between values parts separate entries of the source, which are not always exact repeats. Equal values may be shown once. Read-outs that look alike come from different tables or passages of the source.

B2: FtsZ, full length (E. coli) (natural protein)
chain: MFEPMELTNDAVIKVIGVGGGGGNAVEHMVRERIEGVEFFAVNTDAQALRKTAVGQTIQIGSGITKGLGAGANPEVGRNAADEDRDALRAALEGADMVFIAAGMGGGTGTGAAPVVAEVAKDLGILTVAVVTKPFNFEGKKRMAFAEQGITELSKHVDSLITIPNDKLLKVLGRGISLLDAFGAANDVLKGAVQGIAELITRPGLMNVDFADVRTVMSEMGYAMMGSGVASGEDRAEEAAEMAISSPLLEDIDLSGARGVLVNITAGFDLRLDEFETVGNTIRAFASDNATVVIGTSLDPDMNDELRVTVVATGIGMDKRPEITLVTNKQVQQPVMDRYQQHGMAPLTQEQKPVAKVVNDNAPQTAKEPDYLDIPAFLRKQAD
B3: SlmA (synthetic lethal with a defective Min system) (natural protein)
chain: MAEKQTAKRNRREEILQSLALMLESSDGSQRITTAKLAASVGVSEAALYRHFPSKTRMFDSLIEFIEDSLITRINLILKDEKDTTARLRLIVLLLLGFGERNPGLTRILTGHALMFEQDRLQGRINQLFERIEAQLRQVLREKRMREGEGYTTDETLLASQILAFCEGMLSRFVRSEFKYRPTDDFDARWPLIAAQLQ

Columns and labels:
[1] = target: T1, SlmA (synthetic lethal with a defective Min system) (E. coli), P0C093; assay: fluorescence polarisation; settings: remark: other sources report otherwise
T1 chain: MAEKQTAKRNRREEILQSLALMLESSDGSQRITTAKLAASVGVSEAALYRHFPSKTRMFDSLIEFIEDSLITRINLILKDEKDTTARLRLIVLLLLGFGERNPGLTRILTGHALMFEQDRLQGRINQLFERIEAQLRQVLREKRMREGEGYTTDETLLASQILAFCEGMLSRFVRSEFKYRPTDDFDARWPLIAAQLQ

[2] = target: B3; assay: SAXS
SAXS = target: the molecule itself; assay: SAXS
[3] = target: B2; assay: fluorescence polarisation
SEC = target: the molecule itself; assay: SEC
[4] = target: B2; assay: fluorescence polarisation; remark: listed apart in the source
SlmA = target: T2, SlmA (Escherichia coli, UniProt P0C093 1-198); assay: fluorescence polarization
T2 sequence: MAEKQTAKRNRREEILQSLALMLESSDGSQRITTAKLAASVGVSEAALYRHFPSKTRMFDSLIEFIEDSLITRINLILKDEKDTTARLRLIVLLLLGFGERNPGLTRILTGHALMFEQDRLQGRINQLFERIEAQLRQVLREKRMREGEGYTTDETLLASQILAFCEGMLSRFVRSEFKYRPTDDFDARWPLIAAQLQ

B1: C-terminal truncated FtsZ, FtsZ(1–360), P0A9A6 1-360 (domain or fragment)
chain: MFEPMELTNDAVIKVIGVGGGGGNAVEHMVRERIEGVEFFAVNTDAQALRKTAVGQTIQIGSGITKGLGAGANPEVGRNAADEDRDALRAALEGADMVFIAAGMGGGTGTGAAPVVAEVAKDLGILTVAVVTKPFNFEGKKRMAFAEQGITELSKHVDSLITIPNDKLLKVLGRGISLLDAFGAANDVLKGAVQGIAELITRPGLMNVDFADVRTVMSEMGYAMMGSGVASGEDRAEEAAEMAISSPLLEDIDLSGARGVLVNITAGFDLRLDEFETVGNTIRAFASDNATVVIGTSLDPDMNDELRVTVVATGIGMDKRPEITLVTNKQVQQPVMDRYQQHGMAPLTQEQKPVAKVVND
Question: Which Kd [1] does the source give for B1 here?
Answer: The Kd was 148 nM.

Question: For B2, which “stoichiometry N” value [2] is on record?
Answer: Its value is 1 SlmA:FtsZ.

Question: Does B2 bind (SAXS)?
Answer: Result: binds

Question: Which results are given for B3?
Answer: Kd [3]: 142 nM and 130 nM and 205 nM; stoichiometry N (SEC): 2; Kd [4]: 119 ± 11 nM

B4: SBS position 3 G to A (symmetric double mutant) (dsDNA)
DNA 1: GTAAGTACTTAC
DNA 2: GTAAGTACTTAC
Question: With B4 as the binder, how does the Kd (SlmA) read?
Answer: The Kd was roughly 60 nM.

B5: randomized DNA 1 (dsDNA)
DNA 1: AGTCTATAGACT
DNA 2: AGTCTATAGACT
Question: Does B5 bind (SlmA)?
Answer: Result: no binding

B6: randomized DNA 2 (dsDNA)
DNA 1: CCTCAGCTGAGG
DNA 2: CCTCAGCTGAGG
Question: Does B6 bind (SlmA)?
Answer: Result: no binding
